Laboratory results from IntAct's records for PubMed 23825108.

B1: Cyanocobalamin reductase / alkylcobalamin dealkylase (Homo sapiens), Q9Y4U1 (parent)
chain: MEPKVAELKQKIEDTLCPFGFEVYPFQVAWYNELLPPAFHLPLPGPTLAFLVLSTPAMFDRALKPFLQSCHLRMLTDPVDQCVAYHLGRVRESLPELQIEIIADYEVHPNRRPKILAQTAAHVAGAAYYYQRQDVEADPWGNQRISGVCIHPRFGGWFAIRGVVLLPGIEVPDLPPRKPHDCVPTRADRIALLEGFNFHWRDWTYRDAVTPQERYSEEQKAYFSTPPAQRLALLGLAQPSEKPSSPSPDLPFTTPAPKKPGNPSRARSWLSPRVSPPASPGP

Variants of: B1
Settings: with meth_human MTR

Variant | effect of a mutation on the interaction
MEPKVAELKQKIEDTLCPFGFEVYPFQVAWYNELLPPAFHLPLPGPTLAFLVLSTPAMFDRALKPFLQSCHLRMLTDPVDQCVAYHLGRVRESLPELQIEIIADYEVHPNRRPKILAQTAAHVAGAAYYYQRQDVEADPWGNQRISGVCIHPRFGGWFAIQGVVLLPGIEVPDLPPRKPHDCVPTRADRIALLEGFNFHWRDWTYRDAVTPQERYSEEQKAYFSTPPAQRLALLGLAQPSEKPSSPSPDLPFTTPAPKKPGNPSRARSWLSPRVSPPASPGP [R161Q] | decreasing interaction strength
MEPKVAELKQKIEDTLCPFGFEVYPFQVAWYNELLPPAFHLPLPGPTLAFLVLSTPAMFDRALKPFLQSCHLRMLTDPVDQCVAYHLGRVRESLPELQIEIIADYEVHPNRRPKILAQTAAHVAGAAYYYQRQDVEADPWGNQRISGVCIHPRFGGWFAIRGVVLLPGIEVPDLPPRKPHDCVPTRADRIALLEGFNFHWRDWTYWDAVTPQERYSEEQKAYFSTPPAQRLALLGLAQPSEKPSSPSPDLPFTTPAPKKPGNPSRARSWLSPRVSPPASPGP [R206W] | decreasing interaction strength
